Data on two molecules can be found in paper PMC2169462 (The Journal of Cell Biology, 2001).

This test concerns the target His6-tagged human RanGTP Q69L (human, UniProt P62826 1-216, Q69L). The test is described as follows: pull-down.

B1: recombinant Kap121p (natural protein)
chain: MSALPEEVNRTLLQIVQAFASPDNQIRSVAEKALSEEWITENNIEYLLTFLAEQAAFSQDTTVAALSAVLFRKLALKAPPSSKLMIMSKNITHIRKEVLAQIRSSLLKGFLSERADSIRHKLSDAIAECVQDDLPAWPELLQALIESLKSGNPNFRESSFRILTTVPYLITAVDINSILPIFQSGFTDASDNVKIAAVTAFVGYFKQLPKSEWSKLGILLPSLLNSLPRFLDDGKDDALASVFESLIELVELAPKLFKDMFDQIIQFTDMVIKNKDLEPPARTTALELLTVFSENAPQMCKSNQNYGQTLVMVTLIMMTEVSIDDDDAAEWIESDDTDDEEEVTYDHARQALDRVALKLGGEYLAAPLFQYLQQMITSTEWRERFAAMMALSSAAEGCADVLIGEIPKILDMVIPLINDPHPRVQYGCCNVLGQISTDFSPFIQRTAHDRILPALISKLTSECTSRVQTHAAAALVNFSEFASKDILEPYLDSLLTNLLVLLQSNKLYVQEQALTTIAFIAEAAKNKFIKYYDTLMPLLLNVLKVNNKDNSVLKGKCMECATLIGFAVGKEKFHEHSQELISILVALQNSDIDEDDALRSYLEQSWSRICRILGDDFVPLLPIVIPPLLITAKATQDVGLIEEEEAANFQQYPDWDVVQVQGKHIAIHTSVLDDKVSAMELLQSYATLLRGQFAVYVKEVMEEIALPSLDFYLHDGVRAAGATLIPILLSCLLAATGTQNEELVLLWHKASSKLIGGLMSEPMPEITQVYHNSLVNGIKVMGDNCLSEDQLAAFTKGVSANLTDTYERMQDRHGDGDEYNENIDEEEDFTDEDLLDEINKSIAAVLKTTNGHYLKNLENIWPMINTFLLDNEPILVIFALVVIGDLIQYGGEQTASMKNAFIPKVTECLISPDARIRQAASYIIGVCAQYAPSTYADVCIPTLDTLVQIVDFPGSKLEENRSSTENASAAIAKILYAYNSNIPNVDTYTANWFKTLPTITDKEAASFNYQFLSQLIENNSPIVCAQSNISAVVDSVIQALNERSLTEREGQTVISSVKKLLGFLPSSDAMAIFNRYPADIMEKVHKWFA
In the case of B1, the binding result is recorded as “binds”.

B2: recombinant Kap95p (natural protein)
chain: MSTAEFAQLLENSILSPDQNIRLTSETQLKKLSNDNFLQFAGLSSQVLIDENTKLEGRILAALTLKNELVSKDSVKTQQFAQRWITQVSPEAKNQIKTNALTALVSIEPRIANAAAQLIAAIADIELPHGAWPELMKIMVDNTGAEQPENVKRASLLALGYMCESADPQSQALVSSSNNILIAIVQGAQSTETSKAVRLAALNALADSLIFIKNNMEREGERNYLMQVVCEATQAEDIEVQAAAFGCLCKIMSLYYTFMKPYMEQALYALTIATMKSPNDKVASMTVEFWSTICEEEIDIAYELAQFPQSPLQSYNFALSSIKDVVPNLLNLLTRQNEDPEDDDWNVSMSAGACLQLFAQNCGNHILEPVLEFVEQNITADNWRNREAAVMAFGSIMDGPDKVQRTYYVHQALPSILNLMNDQSLQVKETTAWCIGRIADSVAESIDPQQHLPGVVQACLIGLQDHPKVATNCSWTIINLVEQLAEATPSPIYNFYPALVDGLIGAANRIDNEFNARASAFSALTTMVEYATDTVAETSASISTFVMDKLGQTMSVDENQLTLEDAQSLQELQSNILTVLAAVIRKSPSSVEPVADMLMGLFFRLLEKKDSAFIEDDVFYAISALAASLGKGFEKYLETFSPYLLKALNQVDSPVSITAVGFIADISNSLEEDFRRYSDAMMNVLAQMISNPNARRELKPAVLSVFGDIASNIGADFIPYLNDIMALCVAAQNTKPENGTLEALDYQIKVLEAVLDAYVGIVAGLHDKPEALFPYVGTIFQFIAQVAEDPQLYSEDATSRAAVGLIGDIAAMFPDGSIKQFYGQDWVIDYIKRTRSGQLFSQATKDTARWAREQQKRQLSL
With B2, the binding result is on record as “binds”.
